Assay results as given in patent publication US20210147534A1 (RECEPTA BIOPHARMA S A, published 2021).
No end group written: not given here.

Biological target: T1, recombinant mouse CD74 (mouse, UniProt P04441 56-279, limits assumed)
T1 construct: Bought (Abcam); also called recombinant CD74
T1 sequence (looked up): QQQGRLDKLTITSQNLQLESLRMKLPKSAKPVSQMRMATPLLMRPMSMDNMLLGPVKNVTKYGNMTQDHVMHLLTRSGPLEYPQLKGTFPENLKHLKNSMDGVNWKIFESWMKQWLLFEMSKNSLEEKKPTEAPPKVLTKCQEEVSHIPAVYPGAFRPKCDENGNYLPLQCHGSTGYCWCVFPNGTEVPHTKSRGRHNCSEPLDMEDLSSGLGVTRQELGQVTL
Assay: chemiluminescent dot-blotting, peptide on nitrocellulose, recombinant CD74 in solution
Experimental: Membranes were washed and incubated with primary mouse anti-CD74 or anti-MIF (both from Abcam, Cambridge, UK), washed and incubated with secondary anti-mouse IgG-HRP. Immunoreactivity was determined using the ECL Western Blotting Substrate (Millipore, Billerica, Mass.), and signal was detected in a trans-illuminator Uvitec, Cambridge, UK).

binding result: no binding
B1: Rb10A1 (peptide)
peptide: AARGETARATFAYWGQG-NH2
notes: Linear peptide; N-terminal Cys of Rb10 replaced by alanine; also called A1C
